Data reported in the supplement of paper PMC12764529.
± gives the half width of the 95% confidence interval.

Assays:
[1] = folding stability dG unfold from trypsin proteolysis; higher = more stable
Procedure, shortened: (§1)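 K50 was inferred by Bayesian fitting of sequencing counts obtained after protease digestion of designed mini-proteins. Unfolding free energy was derived by comparison with a sequence-predicted unfolded-state K50 and a shared folded-state K50, for each protease or both combined. The mini-proteins were under 80 residues, had no cysteine, were carried in a PA-tagged cDNA display construct, and were kept only if AlphaFold2 dimer inter-PAE exceeded 15.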

[2] = folding stability dG unfold (combined trypsin and chymotrypsin); higher = more stable
Procedure, shortened: as §1

[3] = folding stability dG unfold from chymotrypsin proteolysis; higher = more stable
Procedure, shortened: as §1

Sequence | folding stability dG unfold [1] [kcal/mol] | folding stability dG unfold [2] [kcal/mol] | folding stability dG unfold [3] [kcal/mol]
SAGGSAGGSAAMTVSEVSSSPDPSSDYLSFEVRTTETVKVPGTKAPVTTTVTTTPTKVSKLLSAGGSAGGSA [r18_41_JUSTAS] | -0.237 ± 0.12 | -0.111 ± 0.12 | -0.177 ± 0.25
SAGGSAGGSAANVTREPRFDPSTNLVRTLVRFPDGSVREEILEITKNPDGTLTYKRFERPPSAGGSAGGSAG [r3_474_JUSTAS] | 0.383 ± 0.12 | 1.19 ± 0.14 | 1.59 ± 0.18
SAGGSAGGSAATKQITYTPPGSNRTYSFTATLTEEDPVTGRKLLELTLPDGTPITLPEGELGSAGGSAGGSA [r18_334_JUSTAS] | 0.191 ± 0.061 | 0.163 ± 0.067 | 0.0349 ± 0.08
SAGGSAGGSAAVILPEGTLYFTLPDGSRAAATVDPATGTVHIRLYSPDGVPLAEADIPIDPSAGGSAGGSAG [r3_447_TrMRF] | 0.947 ± 0.024 | 1.83 ± 0.07 | 2.26 ± 0.037
SAGGSAGGSAAYTTPDGTNIILKDPNRPVVSLYKKDPSTNTWTPVSTLPISEVPEEILELLSAGGSAGGSAG [r3_241_JUSTAS] | 0.426 ± 0.022 | 0.599 ± 0.062 | 0.583 ± 0.079
SAGGSAGGSADDEVVEIVDVLPLPNRPVLVVKVRGPDGQTKVYDPATGKWLTPEEAKAALSSAGGSAGGSAG [r3_206_TrMRF] | 1.09 ± 0.032 | 1.61 ± 0.086 | 1.98 ± 0.045
SAGGSAGGSADGNKPPEIKINLEVERHPNGMVEITATLHWPGGKEFPVRIMYNPDKIFIEISAGGSAGGSAG [r3_259_TrROS] | 2.95 ± 0.31 | 3.19 ± 0.14 | 3.4 ± 0.16
SAGGSAGGSADGWVFLVGADVEVEPVPASLLNVPRSVPGEENPYVVKLKEVSFLLVPAKELSAGGSAGGSAG [r3_488_TrMRF] | -0.906 ± 0.39 | 0.185 ± 0.16 | 0.734 ± 0.23
SAGGSAGGSADIGDPSKIKPKPLHFSFPVKIKLSFEYNGPDGVKKTFSLELTFTVVDKGLGSAGGSAGGSAG [r3_380_TrMRF] | 3.15 ± 0.2 | 3.89 ± 0.44 | 4.14 ± 0.21
SAGGSAGGSADLLEELPGLEVVDIERKGNSVVALFRNKETGELVRVTVDADGNITVEVLPLESAGGSAGGSA [r18_26_TrROS_Hall] | 3.7 ± 0.1 | 3.99 ± 0.11 | 4.02 ± 0.072
SAGGSAGGSADWQKLEYPFPPGMPLDNIKEELRDLFPGKKPTIEIDKIEPHNGQYWIKITVKSAGGSAGGSA [r18_360_TrROS] | 0.42 ± 0.047 | 0.291 ± 0.075 | 0.0785 ± 0.15
SAGGSAGGSAEELLKKLAEELGLEEGDEVTIEVDGKLIKIYFNKDGKIVKVEVYELDPEDLSAGGSAGGSAG [r3_468_TrROS_Hall] | 2.01 ± 0.11 | 3.25 ± 0.079 | 3.59 ± 0.087
SAGGSAGGSAEEVTVTVKIERTTEDGEKVEETITVTVPAEKLDELKKAAEEAGFTVVEVTPSAGGSAGGSAG [r3_453_TrROS_Hall] | 2.68 ± 0.14 | 2.38 ± 0.1 | 2.19 ± 0.14
SAGGSAGGSAEKGIAFILLVTEEGDLEKALETAEELKKELEEKTGKPVEVVVNIFVVEPELFSAGGSAGGSA [r18_515_TrMRF] | 1.81 ± 0.048 | 2.24 ± 0.14 | 2.38 ± 0.084
SAGGSAGGSAEKVITVWIPLPPGQGVDEIAKEIARYLGFPNIKIDNIQYDPEDGWYQITFKLSAGGSAGGSA [r18_481_TrROS] | 3.48 ± 0.096 | 3.97 ± 0.061 | 4.163 ± 0.032
SAGGSAGGSAEPDIEVVVTPVPGPYGPLYYRVEVRIPEAGRTVFTYARLDDPEEIEGIPIESAGGSAGGSAG [r3_432_TrMRF] | 0.829 ± 0.066 | 0.7 ± 0.077 | 0.545 ± 0.16
SAGGSAGGSAEPPEVRIRLEVRLLPDGTLEVTAEIEVDGKTYRITVTVDAKTNEIVSVSIEPSAGGSAGGSA [r18_459_TrROS_Hall] | 4.44 ± 0.36 | 4.3 ± 0.46 | 3.89 ± 0.21
SAGGSAGGSAEPPPLVVVTEVRTITVEIDLDDLSEEEREALENLDTVTITVTRVVVVPREDLSAGGSAGGSA [r18_127_TrROS_Hall] | 2.42 ± 0.22 | 1.84 ± 0.46 | 1.39 ± 0.22
SAGGSAGGSAETVTITLTVPPGASVEEILAALKAKYPDITSVSVERREDGYLKVTVTVRLDSAGGSAGGSAG [r3_371_TrROS_Hall] | 5.28 ± 0.47 | 4.46 ± 0.074 | 4.02 ± 0.068
SAGGSAGGSAEWKPITYWVPPGQSIKEIADDLMDKNPRITDAEMEYDPDGYMKVTLTVRLDSAGGSAGGSAG [r3_371_TrROS] | 0.493 ± 0.056 | 0.552 ± 0.086 | 0.505 ± 0.14
SAGGSAGGSAEYRVVVVPPVPTVLIFVKPDRVYVVDLDPATGRATIRPVNVPPNVLPESLLTSAGGSAGGSA [r18_59_TrMRF] | 1.27 ± 0.02 | 1.52 ± 0.056 | 1.67 ± 0.06
SAGGSAGGSAFKLPPGKKITIFFDPENGNFAIMVPDGNERRVPMPAEELIKLGFPVEIIGPWSAGGSAGGSA [r18_125_TrROS] | 0.365 ± 0.14 | 0.517 ± 0.19 | 0.566 ± 0.25
SAGGSAGGSAFQIEDLKIEKVEFNPDGMVHNELEITLPGGKELEVSIMIDPKKPGKLMIMIVSAGGSAGGSA [r18_97_TrROS] | 1.98 ± 0.11 | 1.66 ± 0.31 | 1.42 ± 0.049
SAGGSAGGSAGAKKLPPGQVALRIEPVTVTVTDEDGKERTVTRIRLVDAATGEEYEFTFPSAGGSAGGSAGG [r17_266_TrROS_Hall] | 0.829 ± 0.1 | 0.744 ± 0.15 | 0.531 ± 0.1
SAGGSAGGSAGAPPDVEEVTVTVTITNPDGSTTTTTVTATPEELAALAAAPGRPTAVSAESAGGSAGGSAGG [r17_313_JUSTAS] | 0.635 ± 0.072 | 0.595 ± 0.17 | 0.486 ± 0.015
SAGGSAGGSAGASPSVPFTVKVTIKSPNGLSTKTISLSSLEDLEALPLPNVVEIEITPLSSAGGSAGGSAGG [r17_290_JUSTAS] | 1.04 ± 0.049 | 0.907 ± 0.14 | 0.78 ± 0.14
